US20150133367

Target: T1, SCEEVCKPGGP (SEQ ID NO:47)
T1 chain: SCEEVCKPGGP

B1: Cathepsin K (protein)
chain: APDSVDYRKKGYVTPVKNQGQCGSCWAFSSVGALEGQLKKKTGKLLNLSPQNLVDCVSENDGCGGGYMTNAFQYVQKNRGIDSEDAYPYVGQEESCMYNPTGKAAKCRGYREIPEGNEKALKRAVARVGPVSVAIDASLTSFQFYSKGVYYDESCNSDNLNHAVLAVGYGIQKGNKHWIIKNSWGENWGNKGYILMARNKNNACGIANLASFPKM
  cleavage of the peptide by the enzyme: This peptide did not inhibit cathepsin K but rather was cleaved by the enzyme
